From US20190010228A1 (Genentech, published 2019) come the findings set out here.

Numbering of substitutions follows the chain as printed. Names may count otherwise.

For orientation: Kd means the equilibrium constant for the complex coming apart. A higher Kd goes with a looser complex. As a reminder, the koff is the first-order rate constant of dissociation. The low end stands for slow dissociation, the high end for fast dissociation. By kon is commonly meant a measure of how fast the partners come together. A lower kon goes with slower complex formation.

For experiment [1], the target named is LRP5 (transfected into reporter cells). Nature of the experiment: cell-based or functional assay.
For experiment [2], the target named is T1, human LRP5 domains E3-E4 (E644-Q1263 of SEQ ID NO: 42) (human, UniProt O75197 644-1263).
T1 construct: Soluble fragment made in-house; It was biotinylated for phage sorting; also called LRP5-E3/E4; LRP5E3/E4
T1 sequence: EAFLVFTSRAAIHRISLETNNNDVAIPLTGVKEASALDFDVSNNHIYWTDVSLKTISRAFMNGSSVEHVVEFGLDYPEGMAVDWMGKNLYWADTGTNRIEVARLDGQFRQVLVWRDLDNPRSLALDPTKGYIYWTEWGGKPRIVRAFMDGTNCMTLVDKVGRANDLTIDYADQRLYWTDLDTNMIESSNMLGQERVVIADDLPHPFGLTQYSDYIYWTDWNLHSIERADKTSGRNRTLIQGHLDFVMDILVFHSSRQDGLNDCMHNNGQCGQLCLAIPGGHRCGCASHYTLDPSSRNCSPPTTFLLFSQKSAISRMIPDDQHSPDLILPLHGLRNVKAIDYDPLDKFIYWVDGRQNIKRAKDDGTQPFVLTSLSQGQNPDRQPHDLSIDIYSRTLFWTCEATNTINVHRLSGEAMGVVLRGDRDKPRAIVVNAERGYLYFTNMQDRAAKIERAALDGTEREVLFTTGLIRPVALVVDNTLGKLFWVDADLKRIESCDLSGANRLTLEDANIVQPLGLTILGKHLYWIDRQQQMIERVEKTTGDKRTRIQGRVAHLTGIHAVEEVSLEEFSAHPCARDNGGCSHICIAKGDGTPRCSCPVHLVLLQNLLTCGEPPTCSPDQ
Nature of the experiment: SPR, BIAcore T100, IgG captured by anti-human Fc, LRP5E3/E4 as analyte, 25 C. As for the experimental part: Binding affinities of anti-LRP5E3/E4 IgGs were measured by Surface Plasmon Resonance (SPR) using a BIAcore™-T100 instrument. Anti-LRP5E3/E4 human IgGs were captured by mouse anti-human Fc antibody (GE Healthcare, cat# BR-1008-39) coated on CM5 biosensor chips to achieve approximately 200 response units (RU). For kinetics measurements, two-fold serial dilutions ([…]) of human LRP5E3/E4 (GNE) were injected in HBS-P buffer (10 mM HEPES, pH 7.4, 0.15 M NaCl, 0.005% surfactant P20) at 25° C. with a flow rate of 30 μl/min. Association rates (kₒₙ) and dissociation rates (koff) were calculated using a simple one-to-one Langmuir binding model (BIAcore Evaluation Software version 2.0.2). The equilibrium dissociation constant (KD) was calculated as the ratio koff/kₒₙ.
For orientation: SPR reads the build-up and loss of mass on a sensor chip optically.

B1: YW629.51 (antibody, human IgG1, V domains shown)
VH: EVQLVESGGGLVQPGGSLRLSCAASGFTFSSYAMHWVRQAPGKGLEWVSRISSNGGSTYYADSVKGRFTISRDNSKNTLYLQMNSLRAEDTAVYYCARWIPQSYPFASYKSGFDYWGQGTLVTVSS
VL: DIQMTQSPSSLSASVGDRVTITCRASQGISSYLAWYQQKPGKAPKLLIYDASSLESGVPSRFSGSGSGTDFTLTISSLQPEDFATYYCQQYYSYPFTFGQGTKVEIKR
notes: also called P6C.51; bivalent LRP5 antibody (P6C.51)
With B1, the “TOPFlash luciferase reporter, recombinant Norrin (cells transfected with LRP5 and FZD-4)” value in experiment [1] was greater than 2 fold. In experiment [2], the dissociation constant Kd worked out at 13 nM, the koff worked out at 0.00309 s⁻¹ and the kon is 237000 M⁻¹ s⁻¹.

B2: YW629.42 (antibody, human IgG1, V domains shown)
VH: EVQLVESGGGLVQPGGSLRLSCAASGFTFSSYAMSWVRQAPGKGLEWVGAISSSGSSTYYADSVKGRFTISRDNSKNTLYLQMNSLRAEDTAVYYCARYYRYAPYRSLGMDVWGQGTLVTVSS
VL: B1 VL with D50A, E55Q
notes: also called P6C.42
As for B2, in experiment [2], the equilibrium dissociation constant (Kd) amounted to 51.6 nM, the koff stood at 0.00116 s⁻¹ and the on-rate (kon) turned out to be 22600 M⁻¹ s⁻¹.

B3: YW629.42.57 (antibody, human IgG1, V domains shown)
VH: B2 VH with S53A, S54P
VL: B1 VL with D50A, E55Q
notes: also called P6C.42.57
In experiment [2], B3 displayed a dissociation constant Kd of 5.42 nM, a koff of 0.000163 s⁻¹ and a kon of 30100 M⁻¹ s⁻¹.

B4: YW629.51.77 (antibody, human IgG1, V domains shown)
VH: B1 VH
VL: B1 VL with G28V, S30Y, S31G, S53T, L54R
notes: also called P6C.51.77
Regarding B4, in experiment [2], the dissociation constant (Kd) worked out at 0.438 nM, the koff stood at 0.000165 s⁻¹ and the kon was 376000 M⁻¹ s⁻¹.

B5: YW629.42.65 (antibody, human IgG1, V domains shown)
VH: B2 VH with A50G, S54P
VL: B1 VL with D50A, E55Q, S93L
notes: also called P6C.42.65
As to B5, in experiment [2], binding was put at a Kd of 2.54 nM, the koff amounted to 9.63e-05 s⁻¹ and the kon amounted to 37900 M⁻¹ s⁻¹.

B6: YW629.51.80 (antibody, human IgG1, V domains shown)
VH: B1 VH
VL: B1 VL with G28A, S30Y
notes: also called P6C.51.80
For the molecule B6, in experiment [2], the dissociation constant Kd worked out at 0.268 nM, the koff was 0.000104 s⁻¹ and the association rate constant (kon) stood at 387000 M⁻¹ s⁻¹.

B7: YW629.42.58 (antibody, human IgG1, V domains shown)
VH: B2 VH with S54P, S56W
VL: B1 VL with D50A, E55Q
notes: also called P6C.42.58
In experiment [2], B7 registered an equilibrium dissociation constant (Kd) of 2.78 nM, a koff of 8.69e-05 s⁻¹ and a kon of 31300 M⁻¹ s⁻¹.

B8: YW629.51.63 (antibody, human IgG1, V domains shown)
VH: B1 VH
VL: B1 VL with G28S, S30Y, S31Y
notes: also called P6C.51.63
On to B8, for which, in experiment [2], the Kd came out at 0.592 nM, the koff was 0.000199 s⁻¹ and the kon was found to be 337000 M⁻¹ s⁻¹.

B9: YW629.51.13 (antibody, human IgG1, V domains shown)
VH: B1 VH with A107R
VL: B1 VL
notes: also called P6C.51.13
As to B9, in experiment [2], the equilibrium dissociation constant (Kd) turned out to be 1.13 nM, the off-rate constant (koff) is 0.000369 s⁻¹ and the kon came to 327000 M⁻¹ s⁻¹.

B10: YW629.51.61 (antibody, human IgG1, V domains shown)
VH: B1 VH
VL: B1 VL with G28V, I29M, S30G, S31Y
notes: also called P6C.51.61; PC6.51.61
With B10, in experiment [1], the “TOPFlash luciferase reporter, Norrin as ligand (cells transfected with LRP5 and FZD-4)” value came to 3 fold; the “TOPFlash luciferase reporter, Wnt7b as ligand (cells transfected with LRP5 and FZD-4)” value is 2 fold. In experiment [2], this molecule displayed a Kd of 0.47 nM, an off-rate constant (koff) of 0.000115 s⁻¹ and a kon of 244000 M⁻¹ s⁻¹.

B11: YW629.51.78 (antibody, human IgG1, V domains shown)
VH: B1 VH
VL: B1 VL with S30F, S31Y, S53T
notes: also called P6C.51.78
With B11, in experiment [2], binding was put at a Kd of 0.192 nM, the off-rate constant (koff) worked out at 7.24e-05 s⁻¹ and the association rate constant (kon) was determined as 378000 M⁻¹ s⁻¹.
